Results taken from paper PMC4666372 (Nucleic Acids Research, 2015).

Molecular target: T1, His-tagged TopA67 (N-terminal region of TopA, 67 kDa, residues 1-597) (E. coli, UniProt P06612 1-597)
T1 construct: DNA topoisomerase I (TopA) of E. coli, residues 1-597; source: E. coli BL21(DE3), 1 mM IPTG 3 h 37°C, purified (Ni-NTA agarose); not shown: His-tag, N-terminal, kept
T1 sequence (looked up): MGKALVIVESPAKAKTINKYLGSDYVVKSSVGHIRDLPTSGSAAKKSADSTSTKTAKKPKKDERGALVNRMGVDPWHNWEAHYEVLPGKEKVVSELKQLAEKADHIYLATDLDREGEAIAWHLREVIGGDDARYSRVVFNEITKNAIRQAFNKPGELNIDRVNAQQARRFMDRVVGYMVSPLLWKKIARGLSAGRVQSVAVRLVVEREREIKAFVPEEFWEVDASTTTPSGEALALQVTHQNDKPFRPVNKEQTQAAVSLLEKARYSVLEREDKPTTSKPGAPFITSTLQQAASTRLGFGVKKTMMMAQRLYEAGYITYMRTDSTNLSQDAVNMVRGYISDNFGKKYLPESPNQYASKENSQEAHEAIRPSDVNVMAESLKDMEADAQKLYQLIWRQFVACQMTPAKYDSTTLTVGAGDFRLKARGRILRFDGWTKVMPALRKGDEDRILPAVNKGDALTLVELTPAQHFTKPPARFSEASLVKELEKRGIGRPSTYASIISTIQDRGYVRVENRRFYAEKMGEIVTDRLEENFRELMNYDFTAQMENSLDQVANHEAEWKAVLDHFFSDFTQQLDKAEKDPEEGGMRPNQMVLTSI
Experiment: co-IP; purified PrS-TopAI and TopA, TopA67 or TopA14 at a molar ratio of 1:5 in buffer A (20 mM Tris-HCl pH 8.0, 150 mM NaCl), in the absence of DNA; anti-protein S antiserum, protein G agarose, 4°C; western blot with anti-His antibody
Settings: both partners purified

B1: PrS-TopAI (N-terminal domain of Protein S fused to TopAI, His-tagged) (natural protein)
chain: not shown
notes: also called PrS-YjhX; YjhX
Question: Does B1 bind?
Answer: binds
